Source: patent US20250352661A1 (MYTHIC THERAPEUTICS, published 2025)

target: T1, Human LRRC15 Protein, His Tag (Acro Biosystems) (human, UniProt Q8TF66 22-538, limits assumed); test: BLI; dissociation pH 7.4 black, pH 5.4 grey [2/2); D00014 FIG. 2B (2/2]
T1 construct: Bought protein with His tag
T1 sequence (looked up): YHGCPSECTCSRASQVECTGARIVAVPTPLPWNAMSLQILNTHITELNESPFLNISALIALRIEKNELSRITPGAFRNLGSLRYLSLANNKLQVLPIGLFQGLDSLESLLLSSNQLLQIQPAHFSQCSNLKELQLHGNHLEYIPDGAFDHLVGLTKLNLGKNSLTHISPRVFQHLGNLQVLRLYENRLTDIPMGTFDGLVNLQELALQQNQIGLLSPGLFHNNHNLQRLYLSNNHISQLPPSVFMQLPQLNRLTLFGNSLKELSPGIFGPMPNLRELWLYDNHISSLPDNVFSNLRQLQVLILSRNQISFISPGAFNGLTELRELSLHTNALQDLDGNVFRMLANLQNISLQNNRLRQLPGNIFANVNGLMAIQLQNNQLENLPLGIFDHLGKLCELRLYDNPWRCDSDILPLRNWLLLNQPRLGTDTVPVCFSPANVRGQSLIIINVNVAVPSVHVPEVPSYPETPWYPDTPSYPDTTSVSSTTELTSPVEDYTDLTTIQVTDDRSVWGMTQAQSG

| Binder | binding result |
| --- | --- |
| MYT7924 (antibody, V domains shown, rabbit 24D9 VH N112H; chimeric, human constant regions) VH: QQQLVESGGGLVKPGASLTLTCKASGFSFSGSYWICWVRQAPGKGLEWIGCINGGSLDITYYASWAKGRFTISKASSTTVTLQKTSLTAADTATYFCASDTSYTAYGNFYFHLWGPGTLVTVSS VL: AQVLTQTASPVSAAVGGTVTINCQSSQSVLNNNWLAWYQQKPGQPPKLLIYDASSLASGVPSRFKGSGSGTQFTLTISDLESDDAATYYCQGEFSCGSADCNAFGGGTEVVVKG | binds |
| MYT7925 (antibody, V domains shown, rabbit 24D9 VH L113H; chimeric, human constant regions) VH: QQQLVESGGGLVKPGASLTLTCKASGFSFSGSYWICWVRQAPGKGLEWIGCINGGSLDITYYASWAKGRFTISKASSTTVTLQKTSLTAADTATYFCASDTSYTAYGNFYFNHWGPGTLVTVSS VL: AQVLTQTASPVSAAVGGTVTINCQSSQSVLNNNWLAWYQQKPGQPPKLLIYDASSLASGVPSRFKGSGSGTQFTLTISDLESDDAATYYCQGEFSCGSADCNAFGGGTEVVVKG | binds |

target: T2, LRRC15 on LRRC15 positive cell lines SAOS2 and G292 (UniProt Q8TF66 22-581, limits assumed); test: cell binding on SAOS2 cells (LRRC15 positive), pH 7.4; parameters: unit not given here
T2 construct: whole, on cells
T2 sequence (looked up): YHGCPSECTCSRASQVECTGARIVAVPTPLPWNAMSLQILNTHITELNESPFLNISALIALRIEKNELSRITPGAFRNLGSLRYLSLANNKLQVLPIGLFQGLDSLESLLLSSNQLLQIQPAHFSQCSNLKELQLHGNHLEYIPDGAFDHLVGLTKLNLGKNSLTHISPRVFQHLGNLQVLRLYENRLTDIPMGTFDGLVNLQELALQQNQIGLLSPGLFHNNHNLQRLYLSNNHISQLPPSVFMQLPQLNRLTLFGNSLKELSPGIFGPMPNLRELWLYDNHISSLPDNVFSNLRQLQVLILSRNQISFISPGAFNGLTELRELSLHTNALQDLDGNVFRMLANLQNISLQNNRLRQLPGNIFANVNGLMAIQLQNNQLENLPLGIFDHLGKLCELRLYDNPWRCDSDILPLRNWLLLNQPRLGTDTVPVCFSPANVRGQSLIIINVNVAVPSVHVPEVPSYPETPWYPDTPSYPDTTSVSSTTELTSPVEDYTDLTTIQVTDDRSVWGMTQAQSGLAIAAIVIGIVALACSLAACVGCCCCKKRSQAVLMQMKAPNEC

| Binder | Affinity |
| --- | --- |
| MYT9776 (antibody, V domains shown, LC EIK); also called hu24D9 HC Dev Combos, +LC FR4 EIK) VH: EVQLVESGGGLVQPGGSLRLSCTASGFSFSGHYWICWVRQAPGKGLEWVGCIHGGSHDITYYASWAKGRFTISRDTSKNTVYLQKTSLRAEDTAVYYCASDTSYTAYGNFYFNLWGQGTLVTVSS VL: EIVMTQSPSPLSASVGDRVIITCQSSQSVLNNNWLAWYQQKPGKAPKLLIYDASSLASGVPSRFSGSGSGAEFTLTISSLQPDDFATYYCQGEFSCGSADCNAFGQGTKLEIK | 7.32 |
| MYT8094 (antibody, IgG1, V domains shown, Humanized 29F1; also called hu29F1 Parental; hu29F1) VH: EVQLVESGGGLVQPGGSLRLSCTASGFSFSSSHWICWVRQAPGKGLEWVGCIYAGSIGSTYYASWAKGRFTISRDTSKNTVYLQMNSLRAEDTAVYYCARAPNDIYNYYFNLWGQGTLVTVSS VL: EIVMTQSPSTLSASVGDRVIITCQASENIYNYLAWYQQKPGKAPKLLIYYASTLASGVPSRFSGSGSGAEFTLTISSLQPDDFATYYCQSGYVSKSSTFGQGTKLTVL | 1.71 |
| MYT9523 (antibody, V domains shown, LC descriptor A68D; also called hu29F1 LC Asp Var) VH: EVQLVESGGGLVQPGGSLRLSCTASGFSFSSSHWICWVRQAPGKGLEWVGCIYAGSIGSTYYASWAKGRFTISRDTSKNTVYLQMNSLRAEDTAVYYCARAPNDIYNYYFNLWGQGTLVTVSS VL: EIVMTQSPSTLSASVGDRVIITCQASENIYNYLAWYQQKPGKAPKLLIYYASTLDSGVPSRFSGSGSGAEFTLTISSLQPDDFATYYCQSGYVSKSSTFGQGTKLTVL | 0.817 |
| MYT9521 (antibody, V domains shown, LC descriptor T66D; also called hu29F1 LC Asp Var) VH: EVQLVESGGGLVQPGGSLRLSCTASGFSFSSSHWICWVRQAPGKGLEWVGCIYAGSIGSTYYASWAKGRFTISRDTSKNTVYLQMNSLRAEDTAVYYCARAPNDIYNYYFNLWGQGTLVTVSS VL: EIVMTQSPSTLSASVGDRVIITCQASENIYNYLAWYQQKPGKAPKLLIYYASDLASGVPSRFSGSGSGAEFTLTISSLQPDDFATYYCQSGYVSKSSTFGQGTKLTVL | 1.58 |
| MYT9731 (antibody, V domains shown, LC descriptor N28E; also called hu29F1 LC Glu Var) VH: EVQLVESGGGLVQPGGSLRLSCTASGFSFSSSHWICWVRQAPGKGLEWVGCIYAGSIGSTYYASWAKGRFTISRDTSKNTVYLQMNSLRAEDTAVYYCARAPNDIYNYYFNLWGQGTLVTVSS VL: EIVMTQSPSTLSASVGDRVIITCQASEEIYNYLAWYQQKPGKAPKLLIYYASTLASGVPSRFSGSGSGAEFTLTISSLQPDDFATYYCQSGYVSKSSTFGQGTKLTVL | 0.352 |

target: T3, Human LRRC15 Protein, His Tag (Acro Biosystems) (human, UniProt Q8TF66 22-538, limits assumed); test: BLI; dissociation pH 7.4 black, pH 5.4 grey [2/2); D00007 FIG. 1E (2/2]
T3 sequence (looked up): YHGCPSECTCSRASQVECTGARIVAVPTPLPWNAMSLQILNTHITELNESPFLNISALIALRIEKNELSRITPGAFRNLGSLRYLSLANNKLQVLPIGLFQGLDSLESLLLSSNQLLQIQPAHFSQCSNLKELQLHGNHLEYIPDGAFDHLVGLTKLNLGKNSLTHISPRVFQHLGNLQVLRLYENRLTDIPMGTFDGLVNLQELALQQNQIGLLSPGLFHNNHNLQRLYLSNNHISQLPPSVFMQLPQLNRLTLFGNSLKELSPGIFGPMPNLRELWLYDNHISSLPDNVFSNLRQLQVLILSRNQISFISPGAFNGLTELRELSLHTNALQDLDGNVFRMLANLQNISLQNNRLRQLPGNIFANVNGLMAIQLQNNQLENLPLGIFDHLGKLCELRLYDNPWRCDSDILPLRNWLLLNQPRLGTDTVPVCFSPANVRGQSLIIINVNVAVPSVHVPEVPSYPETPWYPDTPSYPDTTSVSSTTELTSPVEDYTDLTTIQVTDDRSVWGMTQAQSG
Excerpt: For each individual plot, antigen binding proteins were captured on anti-human Fc biosensors and associated with LRRC15 at pH 7.4. Dissociation was at pH 7.4 (black) or pH 5.4 (grey). Major X-axis ticks=100 seconds, with left dashed vertical line=0 seconds. Major Y-axis ticks=0.5 nm and octet plots are shown MYT5712 and MYT6080-MYT6121.
Multiple LRRC15-binding monoclonal antibodies have been described in the literature and can be used as a template for engineering pH-dependent binding. We selected discovery RabMAb clone 15G7 (rabbit VH SEQ ID NO: 378, rabbit VL SEQ ID NO: 451; humanized VH SEQ ID NO: 382, humanized VL SEQ ID NO: 455) as a LRRC15-binding monoclonal antibody for pH-engineering via histidine scanning. […] To generate pH-dependent sequence variants, individual amino acid residues within the heavy chain CDRs were systematically substituted with a histidine (or alanine if H was already present in a given position; e.g., MYT6099), one at a time (rabbit, MYT6080-6121). Desirable mutations were transferred to a humanized framework (humanized, MYT 8387-8411). After allowing for four days of protein expression, cell culture supernatants were collected, quantified by SDS-PAGE analysis, and the pH dependence of the variant was evaluated using biolayer interferometry (BLI) on an Octet RED 96e instrument. Briefly, cell culture supernatants were diluted based on qualitative expression level of the variant determined by visual examination of SDS-PAGE gels, 5 μL of cell culture supernatant was diluted into 195 μL of 1×PBST, pH 7.4 for high expressors, 25 μL of cell culture supernatant was diluted into 175 μL of 1×PBST, pH 7.4 for medium expressors and 100 μL of cell culture supernatant was diluted into 100 μL of 1×PBST, pH 7.4 for low expressors for loading onto the sensor tips.

| Binder | binding result |
| --- | --- |
| MYT6111 (antibody, V domains shown, chimeric rabbit 15G7 variant (rabbit variable domains, human constant regions); also called 15G7 VH A100H) VH: QEQLEESGGDLVKPGASLTLTCTASGLDFRRTNYICWVRQAPGKGLEWIGCIYIADVVHYYASWAKGRFTFSKTSSTTVTLQMTSLTAADTATYFCARGHDGGFVYGMDLWGPGTLVTVSS VL: DVVMTQTPASVSEPVGGTVTIKCQASQSIGNYLSWYQQKPGQRPKRLIYSASTLPSGVPSRFKGAGSGTEFTLTISDLESADAATYYCQNNYWLAGYGHPFGGGTEVVVK | binds |
| MYT6113 (antibody, V domains shown, chimeric rabbit 15G7 variant (rabbit variable domains, human constant regions); also called 15G7 VH G102H) VH: QEQLEESGGDLVKPGASLTLTCTASGLDFRRTNYICWVRQAPGKGLEWIGCIYIADVVHYYASWAKGRFTFSKTSSTTVTLQMTSLTAADTATYFCARGADHGFVYGMDLWGPGTLVTVSS VL: DVVMTQTPASVSEPVGGTVTIKCQASQSIGNYLSWYQQKPGQRPKRLIYSASTLPSGVPSRFKGAGSGTEFTLTISDLESADAATYYCQNNYWLAGYGHPFGGGTEVVVK | binds |
| MYT6115 (antibody, V domains shown, chimeric rabbit 15G7 variant (rabbit variable domains, human constant regions); also called 15G7 VH F104H) VH: QEQLEESGGDLVKPGASLTLTCTASGLDFRRTNYICWVRQAPGKGLEWIGCIYIADVVHYYASWAKGRFTFSKTSSTTVTLQMTSLTAADTATYFCARGADGGHVYGMDLWGPGTLVTVSS VL: DVVMTQTPASVSEPVGGTVTIKCQASQSIGNYLSWYQQKPGQRPKRLIYSASTLPSGVPSRFKGAGSGTEFTLTISDLESADAATYYCQNNYWLAGYGHPFGGGTEVVVK | binds |
| MYT6114 (antibody, V domains shown, chimeric rabbit 15G7 variant (rabbit variable domains, human constant regions); also called 15G7 VH G103H) VH: QEQLEESGGDLVKPGASLTLTCTASGLDFRRTNYICWVRQAPGKGLEWIGCIYIADVVHYYASWAKGRFTFSKTSSTTVTLQMTSLTAADTATYFCARGADGHFVYGMDLWGPGTLVTVSS VL: DVVMTQTPASVSEPVGGTVTIKCQASQSIGNYLSWYQQKPGQRPKRLIYSASTLPSGVPSRFKGAGSGTEFTLTISDLESADAATYYCQNNYWLAGYGHPFGGGTEVVVK | binds |
| MYT6116 (antibody, V domains shown, chimeric rabbit 15G7 variant (rabbit variable domains, human constant regions); also called 15G7 VH V105H) VH: QEQLEESGGDLVKPGASLTLTCTASGLDFRRTNYICWVRQAPGKGLEWIGCIYIADVVHYYASWAKGRFTFSKTSSTTVTLQMTSLTAADTATYFCARGADGGFHYGMDLWGPGTLVTVSS VL: DVVMTQTPASVSEPVGGTVTIKCQASQSIGNYLSWYQQKPGQRPKRLIYSASTLPSGVPSRFKGAGSGTEFTLTISDLESADAATYYCQNNYWLAGYGHPFGGGTEVVVK | binds |
| MYT6117 (antibody, V domains shown, chimeric rabbit 15G7 variant (rabbit variable domains, human constant regions); also called 15G7 VH Y106H) VH: QEQLEESGGDLVKPGASLTLTCTASGLDFRRTNYICWVRQAPGKGLEWIGCIYIADVVHYYASWAKGRFTFSKTSSTTVTLQMTSLTAADTATYFCARGADGGFVHGMDLWGPGTLVTVSS VL: DVVMTQTPASVSEPVGGTVTIKCQASQSIGNYLSWYQQKPGQRPKRLIYSASTLPSGVPSRFKGAGSGTEFTLTISDLESADAATYYCQNNYWLAGYGHPFGGGTEVVVK | binds |
| MYT6112 (antibody, V domains shown, chimeric rabbit 15G7 variant (rabbit variable domains, human constant regions); also called 15G7 VH D101H) VH: QEQLEESGGDLVKPGASLTLTCTASGLDFRRTNYICWVRQAPGKGLEWIGCIYIADVVHYYASWAKGRFTFSKTSSTTVTLQMTSLTAADTATYFCARGAHGGFVYGMDLWGPGTLVTVSS VL: DVVMTQTPASVSEPVGGTVTIKCQASQSIGNYLSWYQQKPGQRPKRLIYSASTLPSGVPSRFKGAGSGTEFTLTISDLESADAATYYCQNNYWLAGYGHPFGGGTEVVVK | binds |
